Consider 26 molecules from patent US20170313754A1 (PROTAGONIST THERAPEUTICS, published 2017).

Numbered stars: 1 amine (or outer) side, 2 acyl side, 3 side chain; on linkers, the order of the positions; unused ones are H or OH. Bridge positions count the residues as written; N and C are the ends. Square brackets hold non-standard residues; d marks the D form. Primed or numbered codes have the meaning given here. Ends that are not written are not given here. * marks the point of attachment. Ida = iminodiacetic acid, O=C(CN(CC(=O)[*:3])[*:1])[*:2]; PEG3′ = NH2CH2CH2(OCH2CH2)3CH2CH2CO2H (PEG3 linker); Dip = N[C@H](C(=O)O)C(c1ccccc1)c1ccccc1; pGlu = O=C1CC[C@@H](C(=O)O)N1; β3hP = O=C(O)C[C@@H]1CCCN1; Isovaleryl = CC(C)CC(=O)*; Isobutyryl = CC(C)C(=O)*; Octanoyl = CCCCCCCC(=O)*; Sar = CNCC(=O)O

Experiment [1] has as its target T1, human ferroportin (SLC40A1) fused in frame with GFP, stably expressed in HEK293 cells (human, UniProt Q9NP59 1-571).
T1 sequence (looked up): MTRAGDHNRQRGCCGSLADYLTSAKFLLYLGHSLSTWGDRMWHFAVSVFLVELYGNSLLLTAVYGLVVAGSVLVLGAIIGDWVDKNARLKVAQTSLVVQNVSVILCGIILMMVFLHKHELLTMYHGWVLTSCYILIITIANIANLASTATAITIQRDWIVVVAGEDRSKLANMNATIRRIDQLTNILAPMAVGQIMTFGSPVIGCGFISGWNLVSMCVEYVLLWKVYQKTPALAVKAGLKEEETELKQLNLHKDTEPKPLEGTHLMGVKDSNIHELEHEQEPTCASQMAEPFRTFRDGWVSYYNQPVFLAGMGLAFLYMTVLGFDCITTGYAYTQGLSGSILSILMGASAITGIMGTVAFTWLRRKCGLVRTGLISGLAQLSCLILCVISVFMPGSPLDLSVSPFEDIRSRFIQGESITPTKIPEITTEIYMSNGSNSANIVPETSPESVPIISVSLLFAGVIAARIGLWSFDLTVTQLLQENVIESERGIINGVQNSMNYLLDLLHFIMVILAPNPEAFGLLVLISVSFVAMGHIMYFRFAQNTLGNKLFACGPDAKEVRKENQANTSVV
Briefly: cell-based or functional assay.

For experiment [2], the target named is T2, human ferroportin (SLC40A1) fused in frame with GFP, stably expressed in HEK293 cells (human, UniProt Q9NP59 1-571).
T2 sequence (looked up): T1 sequence (looked up)
The experiment can be described thus: cell-based or functional assay. The source holds these as a separate data set.

As to Isovaleryl-DTHAPCIKFEPRSKEWECK-NH2 (not fully specified (bridges); cysteine pairing not given here) [Isovaleric acid-DTHAPCIKFEPRSKEWECK-NH2], the “Potency EC50 (nM), ferroportin-GFP internalization/degradation” value in experiment [1] is more than 10000 nM.

B1: pGlu-THFPIC1IFVC2HRSKGC2YRRC1R-NH2 (peptide)
peptide: [pGlu]THFPICIFVCHRSKGCYRRCR-NH2
modifications: disulfide 11-17, 7-21
SMILES: CC[C@H](C)[C@@H]1NC(=O)[C@@H](NC(=O)[C@@H](NC(=O)[C@@H]2CCCN2C(=O)[C@H](Cc2ccccc2)NC(=O)[C@H](Cc2c[nH]cn2)NC(=O)[C@@H](NC(=O)[C@@H]2CCC(=O)N2)[C@@H](C)O)[C@@H](C)CC)CSSC[C@@H](C(=O)N[C@@H](CCCNC(=N)N)C(N)=O)NC(=O)[C@H](CCCNC(=N)N)NC(=O)[C@H](CCCNC(=N)N)NC(=O)[C@H](Cc2ccc(O)cc2)NC(=O)[C@@H]2CSSC[C@H](NC(=O)[C@H](C(C)C)NC(=O)[C@H](Cc3ccccc3)NC1=O)C(=O)N[C@@H](Cc1c[nH]cn1)C(=O)N[C@@H](CCCNC(=N)N)C(=O)N[C@@H](CO)C(=O)N[C@@H](CCCCN)C(=O)NCC(=O)N2
On to B1, for which, in experiment [2], the “Potency EC50” value came out at 0.26 µM.

Regarding H-DTHFPCIDFGPRSKGWVCK-NH2 (disulfide 6-18 (inferred)) [Hy-DTHFPCIDFGPRSKGWVCK-NH2], the “Potency EC50 (nM), ferroportin-GFP internalization/degradation” value in experiment [1] was more than 1000 nM.

B2: Hy-DTHFPCIIFGGPRSKGWNCK-NH2 (peptide)
peptide: H-DTHFPCIIFGGPRSKGWNCK-NH2
modifications: not fully specified (bridges); printed as Hy-DTHFPCIIFGGPRSKGWNCK-NH2; cysteine pairing not given here
For the molecule B2, the “Potency EC50 (nM), ferroportin-GFP internalization/degradation” value in experiment [1] came to 404 nM.

On to H-THFPCIIFGPRSKGWVCK-NH2 (disulfide 5-17 (inferred)) [Hy-THFPCIIFGPRSKGWVCK-NH2], for which the “Potency EC50 (nM)” value in experiment [2] was more than 10000 nM.

B3: Isobutyric acid-DTHFPIC1IFVC2HRSKGC2YRRC1R-NH2 (peptide)
peptide: Isobutyryl-DTHFPICIFVCHRSKGCYRRCR-NH2
modifications: disulfide 11-17, 7-21
SMILES: CC[C@H](C)[C@@H]1NC(=O)[C@@H](NC(=O)[C@@H](NC(=O)[C@@H]2CCCN2C(=O)[C@H](Cc2ccccc2)NC(=O)[C@H](Cc2c[nH]cn2)NC(=O)[C@@H](NC(=O)[C@H](CC(=O)O)NC(=O)C(C)C)[C@@H](C)O)[C@@H](C)CC)CSSC[C@@H](C(=O)N[C@@H](CCCNC(=N)N)C(N)=O)NC(=O)[C@H](CCCNC(=N)N)NC(=O)[C@H](CCCNC(=N)N)NC(=O)[C@H](Cc2ccc(O)cc2)NC(=O)[C@@H]2CSSC[C@H](NC(=O)[C@H](C(C)C)NC(=O)[C@H](Cc3ccccc3)NC1=O)C(=O)N[C@@H](Cc1c[nH]cn1)C(=O)N[C@@H](CCCNC(=N)N)C(=O)N[C@@H](CO)C(=O)N[C@@H](CCCCN)C(=O)NCC(=O)N2
With B3, the “Potency EC50” value in experiment [2] was 0.093 µM.

For the molecule Isovaleryl-DTHFPCIKFEPHSKEWVCK-NH2 (not fully specified (bridges); cysteine pairing not given here) [Isovaleric acid-DTHFPCIKFEPHSKEWVCK-NH2], in experiment [1], the “Potency EC50 (nM), ferroportin-GFP internalization/degradation” value came to 80 nM.

As for H-DTHFPCIIFGGPRSKGWDCK-NH2 (disulfide 6-19 (inferred)) [Hy-DTHFPCIIFGGPRSKGWDCK-NH2], the “Potency EC50 (nM), ferroportin-GFP internalization/degradation” value in experiment [1] was found to be 679 nM.

As for [Ida]TH[Dip][β3hP]ICIFGPRSKGWVCM-NH2 (disulfide 7-18 (inferred)) [[Ida]-TH-[Dpa]-[bhPro]-ICIFGPRSKGWVCM-NH2], the “Potency EC50” value in experiment [2] was determined as 0.017 µM.

On to Isovaleryl-SKHAPCIKFEPRSKGWECK-NH2 (disulfide 6-18 (inferred)) [Isovaleric acid-SKHAPCIKFEPRSKGWECK-NH2], for which the “Potency EC50 (nM), ferroportin-GFP internalization/degradation” value in experiment [1] was more than 10000 nM.

B4: Hy-DTHFPC1IIFVC2HRSKGC2YWAVC1FW-NH2 (peptide)
peptide: H-DTHFPCIIFVCHRSKGCYWAVCFW-NH2
modifications: disulfide 11-17, 6-22
SMILES: CC[C@H](C)[C@@H]1NC(=O)[C@@H](NC(=O)[C@@H]2CCCN2C(=O)[C@H](Cc2ccccc2)NC(=O)[C@H](Cc2c[nH]cn2)NC(=O)[C@@H](NC(=O)[C@@H](N)CC(=O)O)[C@@H](C)O)CSSC[C@@H](C(=O)N[C@@H](Cc2ccccc2)C(=O)N[C@@H](Cc2c[nH]c3ccccc23)C(N)=O)NC(=O)[C@H](C(C)C)NC(=O)[C@H](C)NC(=O)[C@H](Cc2c[nH]c3ccccc23)NC(=O)[C@H](Cc2ccc(O)cc2)NC(=O)[C@@H]2CSSC[C@H](NC(=O)[C@H](C(C)C)NC(=O)[C@H](Cc3ccccc3)NC(=O)[C@H]([C@@H](C)CC)NC1=O)C(=O)N[C@@H](Cc1c[nH]cn1)C(=O)N[C@@H](CCCNC(=N)N)C(=O)N[C@@H](CO)C(=O)N[C@@H](CCCCN)C(=O)NCC(=O)N2
In the case of B4, the “Potency EC50 (nM)” value in experiment [2] is more than 10000 nM.

Turning to Isovaleryl-DTHAPCIKFEPRSK[Sar]WECK-NH2 (disulfide 6-18 (inferred)) [Isovaleric acid-DTHAPCIKFEPRSK-[Sarc]-WECK-NH2], in experiment [1], the “Potency EC50 (nM), ferroportin-GFP internalization/degradation” value was more than 10000 nM.

For Isovaleryl-THFPCIIFGPRSKGWVCK-NH2 (disulfide 5-17 (inferred)) [Isovaleric acid-THFPCIIFGPRSKGWVCK-NH2], the “Potency EC50 (nM)” value in experiment [2] is more than 10000 nM.

As for Isovaleryl-DTEFPCIKFEPRSKEWVCK-NH2 (disulfide 6-18 (inferred)) [Isovaleric acid-DTEFPCIKFEPRSKEWVCK-NH2], the “Potency EC50 (nM), ferroportin-GFP internalization/degradation” value in experiment [1] was more than 1000 nM.

With Isovaleryl-DTHFPCIIF[PEG3′]C-NH2 (cysteine pairing not given here) [Isovaleric acid-DTHFPCIIF-[PEG3]-C-NH2], the “Potency EC50 (nM), ferroportin-GFP internalization/degradation” value in experiment [1] amounted to 157 nM.

Take H-DTHFPIAIFGPRSKGWVAM-NH2 [Hy-DTHFPIAIFGPRSKGWVAM-NH2]: in experiment [2], the “Potency EC50 (nM)” value is more than 10000 nM.

As for H-DTHFPCRRFGPRSKGWVC-NH2 (disulfide 6-18 (inferred)) [Hy-DTHFPCRRFGPRSKGWVC-NH2], the “Potency EC50 (nM)” value in experiment [2] is more than 10000 nM.

B5: Isobutyric acid-DTHFPIC1IFVC2HRSKGC2YRRC1R-NH2 (peptide)
peptide: Isobutyryl-DTHFPICIFVCHRSKGCYRRCR-NH2
modifications: disulfide 11-17, 7-21
SMILES: CC[C@H](C)[C@@H]1NC(=O)[C@@H](NC(=O)[C@@H](NC(=O)[C@@H]2CCCN2C(=O)[C@H](Cc2ccccc2)NC(=O)[C@H](Cc2c[nH]cn2)NC(=O)[C@@H](NC(=O)[C@H](CC(=O)O)NC(=O)C(C)C)[C@@H](C)O)[C@@H](C)CC)CSSC[C@@H](C(=O)N[C@@H](CCCNC(=N)N)C(N)=O)NC(=O)[C@H](CCCNC(=N)N)NC(=O)[C@H](CCCNC(=N)N)NC(=O)[C@H](Cc2ccc(O)cc2)NC(=O)[C@@H]2CSSC[C@H](NC(=O)[C@H](C(C)C)NC(=O)[C@H](Cc3ccccc3)NC1=O)C(=O)N[C@@H](Cc1c[nH]cn1)C(=O)N[C@@H](CCCNC(=N)N)C(=O)N[C@@H](CO)C(=O)N[C@@H](CCCCN)C(=O)NCC(=O)N2
Take B5: the “Potency EC50” value in experiment [2] is 0.063 µM.

For the molecule H-DTHFPCINFGPRSKGWVCK-NH2 (disulfide 6-18 (inferred)) [Hy-DTHFPCINFGPRSKGWVCK-NH2], the “Potency EC50 (nM), ferroportin-GFP internalization/degradation” value in experiment [1] is more than 1000 nM.

Isovaleryl-DTHFPCIFEPRSKGTCK-NH2 (disulfide 6-16 (inferred)) [Isovaleric acid-DTHFPCIFEPRSKGTCK-NH2]: the “Potency EC50 (nM), ferroportin-GFP internalization/degradation” value in experiment [1] is 57 nM.

As for Isovaleryl-STHAPCIKFEPRSKGWECK-NH2 (disulfide 6-18 (inferred)) [Isovaleric acid-STHAPCIKFEPRSKGWECK-NH2], the “Potency EC50 (nM), ferroportin-GFP internalization/degradation” value in experiment [1] is more than 10000 nM.

B6: Hy-DTHFPCIIFGGPRSRGWVCK-NH2 (peptide)
peptide: H-DTHFPCIIFGGPRSRGWVCK-NH2
modifications: not fully specified (bridges); printed as Hy-DTHFPCIIFGGPRSRGWVCK-NH2; cysteine pairing not given here
For the molecule B6, the “Potency EC50 (nM), ferroportin-GFP internalization/degradation” value in experiment [1] turned out to be 520 nM.

Turning to Isovaleryl-DTHFGCIKFEPRSKEWVCK-NH2 (not fully specified (bridges); cysteine pairing not given here) [Isovaleric acid-DTHFGCIKFEPRSKEWVCK-NH2], the “Potency EC50 (nM), ferroportin-GFP internalization/degradation” value in experiment [1] was more than 1000 nM.

In the case of Isovaleryl-DTHAPCIKF[Sar]PRSKGWECK-NH2 (disulfide 6-18 (inferred)) [Isovaleric acid-DTHAPCIKF-[Sarc]-PRSKGWECK-NH2], the “Potency EC50 (nM), ferroportin-GFP internalization/degradation” value in experiment [1] was more than 10000 nM.

In the case of Isovaleryl-DTHFECIIFGPRSKGWVCK-NH2 (not fully specified (bridges); cysteine pairing not given here) [Isovaleric acid-DTHFECIIFGPRSKGWVCK-NH2], the “Potency EC50 (nM), ferroportin-GFP internalization/degradation” value in experiment [1] is more than 1000 nM.

Isovaleryl-DTHFPCIKFEPRSK(Octanoyl)EWVCK-NH2 (disulfide 6-18 (inferred)) [Isovaleric acid-DTHFPCIKFEPRS-K(octanoic acid)-EWVCK-NH2]: the “Potency EC50 (nM), ferroportin-GFP internalization/degradation” value in experiment [1] amounted to 62 nM.
